# Test results reported in the supplement of paper PMC9112550, “Optimization of the antimicrobial peptide Bac7 by deep mutational scanning” (BMC Biology, 2022).
# Tested on: Escherichia coli TOP10
# Experiment: shrunken log2 fold change of peptide-encoding DNA abundance (4.5 h post-induction vs induction); higher = less antimicrobial activity (less host growth inhibition)
# Settings: time post-induction: 4.5 h; library: site-saturation at positions 5, 18, 19, 20
# 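Note: peptides expressed intracellularly from a pBAD plasmid library in pooled LB shake-flask culture, induced with 0.3% L-arabinose, DNA abundance read by NGS, three biological replicates, DESeq2 with apeglm shrinkage.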
row,Sequence,shrunken log2 fold change
1,RRIRVRPPRLPRPRPRPKFPPRP,0.102
2,RRIRNRPPRLPRPRPRPNTDPRP,-0.249
3,RRIRFRPPRLPRPRPRPVKYPRP,-0.147
4,RRIRQRPPRLPRPRPRPQPMPRP,0.348
5,RRIRYRPPRLPRPRPRPLFVPRP,-0.507
6,RRIRRRPPRLPRPRPRPYCSPRP,-0.262
7,RRIRYRPPRLPRPRPRPWVIPRP,-0.0317
8,RRIRFRPPRLPRPRPRPASEPRP,0.21
9,RRIRHRPPRLPRPRPRPVVYPRP,-0.186
10,RRIRYRPPRLPRPRPRPSYVPRP,-1.29
11,RRIRARPPRLPRPRPRPFNEPRP,-0.1
12,RRIRMRPPRLPRPRPRPPTWPRP,0.627
13,RRIRQRPPRLPRPRPRPWAGPRP,0.0868
14,RRIRKRPPRLPRPRPRPMTMPRP,-0.00185
15,RRIRVRPPRLPRPRPRPGSEPRP,0.168
16,RRIRNRPPRLPRPRPRPRHFPRP,-0.201
17,RRIRVRPPRLPRPRPRPLWLPRP,-0.00434
18,RRIRFRPPRLPRPRPRPAWYPRP,-0.103
19,RRIRIRPPRLPRPRPRPASCPRP,-0.1
20,RRIRHRPPRLPRPRPRPRKIPRP,0.051
21,RRIRYRPPRLPRPRPRPSRFPRP,-0.074
22,RRIRWRPPRLPRPRPRPSTPPRP,0.0706
23,RRIRCRPPRLPRPRPRPTYQPRP,-0.346
24,RRIRKRPPRLPRPRPRPEWHPRP,0.125
25,RRIRHRPPRLPRPRPRPDDWPRP,-0.0115

row,Sequence,shrunken log2 fold change
1,RRIRIRPPRLPRPRPRPWSSPRP,-0.1
2,RRIRKRPPRLPRPRPRPWDKPRP,-0.0876
3,RRIRERPPRLPRPRPRPEIWPRP,0.417
4,RRIRIRPPRLPRPRPRPRQRPRP,0.211
5,RRIRARPPRLPRPRPRPQAVPRP,0.0772
6,RRIRPRPPRLPRPRPRPFIIPRP,-0.854
7,RRIRARPPRLPRPRPRPYLCPRP,-0.291
8,RRIRGRPPRLPRPRPRPHSMPRP,0.0488
9,RRIRCRPPRLPRPRPRPVKRPRP,0.0344
10,RRIRIRPPRLPRPRPRPYEHPRP,-0.0784
11,RRIRFRPPRLPRPRPRPCLWPRP,-0.0174
12,RRIRFRPPRLPRPRPRPKTYPRP,-0.578
13,RRIRPRPPRLPRPRPRPAVIPRP,-0.007
14,RRIRMRPPRLPRPRPRPNYFPRP,0.0511
15,RRIRQRPPRLPRPRPRPWYNPRP,-0.375
16,RRIRCRPPRLPRPRPRPQFLPRP,-0.79
17,RRIRHRPPRLPRPRPRPWIHPRP,-0.197
18,RRIRQRPPRLPRPRPRPHCTPRP,0.157
19,RRIRMRPPRLPRPRPRPWHNPRP,-0.0135
20,RRIRDRPPRLPRPRPRPCPGPRP,-0.0964
21,RRIRQRPPRLPRPRPRPLDRPRP,0.0981
22,RRIRTRPPRLPRPRPRPSQEPRP,-0.184
23,RRIRNRPPRLPRPRPRPSDHPRP,-0.381
24,RRIRVRPPRLPRPRPRPTEKPRP,-0.0708
25,RRIRMRPPRLPRPRPRPCNSPRP,-0.138

row,Sequence,shrunken log2 fold change
1,RRIRYRPPRLPRPRPRPHYYPRP,0.0204
2,RRIRDRPPRLPRPRPRPKMIPRP,-0.185
3,RRIRARPPRLPRPRPRPSCEPRP,0.128
4,RRIRWRPPRLPRPRPRPVWFPRP,0.563
5,RRIRVRPPRLPRPRPRPLVGPRP,0.726
6,RRIRMRPPRLPRPRPRPYPWPRP,-0.274
7,RRIRSRPPRLPRPRPRPRIQPRP,-0.00704
8,RRIRWRPPRLPRPRPRPKNEPRP,0.177
9,RRIRIRPPRLPRPRPRPANEPRP,0.158
10,RRIRNRPPRLPRPRPRPQILPRP,-0.265
11,RRIRERPPRLPRPRPRPFSPPRP,-0.745
12,RRIRDRPPRLPRPRPRPDTWPRP,0.335
13,RRIRSRPPRLPRPRPRPDPGPRP,0.246
14,RRIRHRPPRLPRPRPRPIAGPRP,0.0113
15,RRIRIRPPRLPRPRPRPRKVPRP,-0.0904
16,RRIRLRPPRLPRPRPRPFRHPRP,-0.322
17,RRIRTRPPRLPRPRPRPCREPRP,0.0664
18,RRIRARPPRLPRPRPRPLVQPRP,0.561
19,RRIRDRPPRLPRPRPRPCVQPRP,0.239
20,RRIRRRPPRLPRPRPRPDTLPRP,0.06
21,RRIRIRPPRLPRPRPRPQSDPRP,-0.212
22,RRIRQRPPRLPRPRPRPEGNPRP,-0.00965
23,RRIRKRPPRLPRPRPRPDWFPRP,0.178
24,RRIRQRPPRLPRPRPRPSMWPRP,0.0422
25,RRIRGRPPRLPRPRPRPCVDPRP,1.17

row,Sequence,shrunken log2 fold change
1,RRIRHRPPRLPRPRPRPVGLPRP,0.119
2,RRIRSRPPRLPRPRPRPTDTPRP,-0.214
3,RRIRWRPPRLPRPRPRPPLEPRP,0.474
4,RRIRDRPPRLPRPRPRPTTFPRP,0.0301
5,RRIRKRPPRLPRPRPRPTFIPRP,-0.0546
6,RRIRCRPPRLPRPRPRPYNMPRP,-0.188
7,RRIRLRPPRLPRPRPRPRDLPRP,0.0268
8,RRIRMRPPRLPRPRPRPWWLPRP,0.0657
9,RRIRNRPPRLPRPRPRPVIVPRP,-0.112
10,RRIRMRPPRLPRPRPRPMTFPRP,-0.512
11,RRIRARPPRLPRPRPRPLDYPRP,-0.25
12,RRIRSRPPRLPRPRPRPDPCPRP,0.0809
13,RRIRMRPPRLPRPRPRPRNYPRP,-0.0232
14,RRIRDRPPRLPRPRPRPQQRPRP,0.147
15,RRIRMRPPRLPRPRPRPVAAPRP,2.1
16,RRIRPRPPRLPRPRPRPERSPRP,0.0565
17,RRIRYRPPRLPRPRPRPTEVPRP,-0.016
18,RRIRLRPPRLPRPRPRPMMQPRP,-0.223
19,RRIRFRPPRLPRPRPRPTCQPRP,-0.0887
20,RRIRVRPPRLPRPRPRPNNDPRP,-0.335
21,RRIRDRPPRLPRPRPRPHEAPRP,0.151
22,RRIRSRPPRLPRPRPRPVRTPRP,-0.0647
23,RRIRKRPPRLPRPRPRPKPGPRP,1.2
24,RRIRHRPPRLPRPRPRPFYQPRP,-0.389
25,RRIRTRPPRLPRPRPRPRPGPRP,0.621

row,Sequence,shrunken log2 fold change
1,RRIRYRPPRLPRPRPRPSEMPRP,-0.765
2,RRIRCRPPRLPRPRPRPDTKPRP,-0.158
3,RRIRMRPPRLPRPRPRPPNGPRP,0.234
4,RRIRKRPPRLPRPRPRPDTSPRP,0.0236
5,RRIRSRPPRLPRPRPRPDNVPRP,4.24
6,RRIRDRPPRLPRPRPRPFDAPRP,-0.13
7,RRIRQRPPRLPRPRPRPLTSPRP,-0.254
8,RRIRMRPPRLPRPRPRPLFAPRP,0.556
9,RRIRGRPPRLPRPRPRPFWGPRP,0.289
10,RRIRIRPPRLPRPRPRPRFGPRP,0.174
11,RRIRNRPPRLPRPRPRPDNEPRP,0.114
12,RRIRCRPPRLPRPRPRPTPFPRP,0.207
13,RRIRFRPPRLPRPRPRPHLPPRP,-0.0118
14,RRIRLRPPRLPRPRPRPQINPRP,-0.506
15,RRIRQRPPRLPRPRPRPGKKPRP,0.0943
16,RRIRIRPPRLPRPRPRPMNLPRP,-0.152
17,RRIRARPPRLPRPRPRPICKPRP,-0.159
18,RRIRIRPPRLPRPRPRPGMAPRP,0.006
19,RRIRWRPPRLPRPRPRPHENPRP,0.0568
20,RRIRLRPPRLPRPRPRPRREPRP,0.223
21,RRIRPRPPRLPRPRPRPKNRPRP,0.00526
22,RRIRSRPPRLPRPRPRPQALPRP,0.0266
23,RRIRCRPPRLPRPRPRPAVRPRP,0.0848
24,RRIRWRPPRLPRPRPRPAVLPRP,0.117
25,RRIRTRPPRLPRPRPRPIHVPRP,0.00961
